In article PMC10799931, “Cryo- EM structure of the mycobacterial 70S ribosome in complex with ribosome hibernation promotion factor RafH” (Nature Communications, 2024):

T1: bacterial ribosomal protein bS1, M. smegmatis (M. smegmatis, UniProt A0QYY6 1-479)
T1 construct: ribosomal protein bS1 of M. smegmatis; only the two N-terminal domains OB1 and OB2 are visible in the map, the rest is disordered; Stood in the assay as a part of the 70S ribosome; the model was begun from AlphaFold2 and docked in the map; also called bS1 r-protein; source: endogenous, in ribosomes purified from M. smegmatis MC2 155
T1 sequence (looked up): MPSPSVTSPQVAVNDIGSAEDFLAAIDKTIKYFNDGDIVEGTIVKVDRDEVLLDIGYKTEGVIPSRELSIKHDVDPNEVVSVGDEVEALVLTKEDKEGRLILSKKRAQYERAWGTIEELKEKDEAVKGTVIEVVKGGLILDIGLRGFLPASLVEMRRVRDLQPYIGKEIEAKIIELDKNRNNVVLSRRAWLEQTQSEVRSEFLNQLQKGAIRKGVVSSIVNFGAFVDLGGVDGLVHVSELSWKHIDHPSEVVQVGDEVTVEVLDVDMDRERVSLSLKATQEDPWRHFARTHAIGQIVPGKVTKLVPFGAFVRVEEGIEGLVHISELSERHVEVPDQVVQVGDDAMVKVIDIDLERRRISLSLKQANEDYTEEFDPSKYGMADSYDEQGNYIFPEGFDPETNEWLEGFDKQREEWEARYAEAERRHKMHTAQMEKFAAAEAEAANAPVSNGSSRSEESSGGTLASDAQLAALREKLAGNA

B1: RafH (ribosome associated factor under hypoxia), M. smegmatis (natural protein, UniProt A0QZ86 1-258, looked up)
chain: MDVDVSTDGELPGAAEYAREKIGRLSRRAHRPVLHARVRLTRHGDPAVERPVIAQANLDVNGRQVRAQVEGVNAREAVDRLEARLRSRLERIAEHWEARRGGVPAEAGREWRHESEPARRPGYFPRPPEERRIIRRKSFSMVPCTVDEAALEMEMLDYDFHLFTEKGTGFAAVLYKGGPTGYRLVLVIPVPADELSPFEKPITISTHPAPCLTQRDAVERLGLLGLPFLFYIDAAEGRASVIYRRYDGHYGLITPADG
notes: RafH of M. smegmatis, gene MSMEG_3935, 258 amino acid residues (~30 kDa): NTD 1-100, linker 101-130, CTD 131-258; gene synthesised (GenScript) and cloned in pET-28a(+); the methods say only that the gene MSMEG_3935 was cloned; also called MSMEG_3935; source: E. coli C41(DE3), purified (Ni-NTA, size-exclusion chromatography)

What was measured:
[1] = target: B1; assay: cryo-EM structure; single particle cryo-EM of the in-vitro reconstituted 70S ribosome RafH complex (Titan Krios 300 kV, Falcon 3, Relion 3.1.4); overall 2.8 Å; maps with bS1 or E-site tRNA low pass filtered to 3.5 Å; details: both partners purified
[2] = target: T1, bacterial ribosomal protein bS1, M. …; assay: as above; details: both partners purified

binding result [1] | binding result [2] | Binder
binds | – | ribosomal protein uS9, M. smegmatis (natural protein, UniProt A0QSP9 1-150, looked up, ribosomal protein uS9 of M. smegmatis; C-terminal residue R150; Stood in the assay as a part of the 70S ribosome; also called r-protein uS9; source: endogenous, in ribosomes purified from M. smegmatis MC2 155) MTDVTETEVVTESAEPREPVIIDRPIQTVGRRKEAVVRVRLVPGTGQFNLDGRTLENYFPNKVHQQLIKAPLVTVDRVDQFDIYAHLDGGGPSGQAGALRLAIARALILVQPEDRPALKKAGFLTRDPRAIERKKYGLKKARKAPQYSKR
– | binds | B1
binds | – | ribosomal protein uS11, M. smegmatis (natural protein, ribosomal protein uS11 of M. smegmatis; Stood in the assay as a part of the 70S ribosome; also called uS11 r-protein; source: endogenous, in ribosomes purified from M. smegmatis MC2 155) not shown
– | binds | ribosomal protein uS2, M. smegmatis (natural protein, UniProt A0QVB8 1-277, looked up, ribosomal protein uS2 of M. smegmatis; Stood in the assay as a part of the 70S ribosome; also called uS2 r-protein; source: endogenous, in ribosomes purified from M. smegmatis MC2 155) MAVVTMKQLLDSGAHFGHQTRRWNPKMKRFIFTDRNGIYIIDLQQTLTYIDKAYEFVKETVAHGGTVLFVGTKKQAQESIAEEATRVGMPYVNQRWLGGMLTNFSTVHKRLQRLKELEAMEQTGGFEGRTKKEILMLTREKNKLERSLGGIRDMQKVPSAVWVVDTNKEHIAVGEARKLGIPVIAILDTNCDPDVVDYPIPGNDDAIRSAALLTKVIASAVAEGLQARAGQGSGEKPAEGAEPLAEWEQELLAGATAGAADASAEGAAAPESSTDAS
